Laboratory results as given in paper PMC10689503, “CaMKK2 and CHK1 phosphorylate human STN1 in response to replication stress to protect stalled forks from aberrant resection”.

Key:
Conditions in all cases: protein: recombinant;recombinant;recombinant; copies: 1;1;1; label: 5'-Cy3 on Oligo 2; 25 bp duplex; 5' overhang 35 nt on strand 1
[1] = molecular target: CTC1;STN1 S96D;TEN1 (human;human;human, UniProt Q2NKJ3;Q9H668;Q86WV5 1-1217;1-368;1-123, |S96D|); experiment: EMSA; affinity comparable to WT-CST; EMSA: 60 nM DNA, 35 mM Tris-HCl pH 7.5, 1 mM DTT, 100 ng/uL BSA, 50 mM KCl, 37 C, 5 min; 0.8% agarose, 1x TBE, 4 C
CTC1;STN1 S96D;TEN1, sequence (Q2NKJ3 whole entry, chain 1 of 3): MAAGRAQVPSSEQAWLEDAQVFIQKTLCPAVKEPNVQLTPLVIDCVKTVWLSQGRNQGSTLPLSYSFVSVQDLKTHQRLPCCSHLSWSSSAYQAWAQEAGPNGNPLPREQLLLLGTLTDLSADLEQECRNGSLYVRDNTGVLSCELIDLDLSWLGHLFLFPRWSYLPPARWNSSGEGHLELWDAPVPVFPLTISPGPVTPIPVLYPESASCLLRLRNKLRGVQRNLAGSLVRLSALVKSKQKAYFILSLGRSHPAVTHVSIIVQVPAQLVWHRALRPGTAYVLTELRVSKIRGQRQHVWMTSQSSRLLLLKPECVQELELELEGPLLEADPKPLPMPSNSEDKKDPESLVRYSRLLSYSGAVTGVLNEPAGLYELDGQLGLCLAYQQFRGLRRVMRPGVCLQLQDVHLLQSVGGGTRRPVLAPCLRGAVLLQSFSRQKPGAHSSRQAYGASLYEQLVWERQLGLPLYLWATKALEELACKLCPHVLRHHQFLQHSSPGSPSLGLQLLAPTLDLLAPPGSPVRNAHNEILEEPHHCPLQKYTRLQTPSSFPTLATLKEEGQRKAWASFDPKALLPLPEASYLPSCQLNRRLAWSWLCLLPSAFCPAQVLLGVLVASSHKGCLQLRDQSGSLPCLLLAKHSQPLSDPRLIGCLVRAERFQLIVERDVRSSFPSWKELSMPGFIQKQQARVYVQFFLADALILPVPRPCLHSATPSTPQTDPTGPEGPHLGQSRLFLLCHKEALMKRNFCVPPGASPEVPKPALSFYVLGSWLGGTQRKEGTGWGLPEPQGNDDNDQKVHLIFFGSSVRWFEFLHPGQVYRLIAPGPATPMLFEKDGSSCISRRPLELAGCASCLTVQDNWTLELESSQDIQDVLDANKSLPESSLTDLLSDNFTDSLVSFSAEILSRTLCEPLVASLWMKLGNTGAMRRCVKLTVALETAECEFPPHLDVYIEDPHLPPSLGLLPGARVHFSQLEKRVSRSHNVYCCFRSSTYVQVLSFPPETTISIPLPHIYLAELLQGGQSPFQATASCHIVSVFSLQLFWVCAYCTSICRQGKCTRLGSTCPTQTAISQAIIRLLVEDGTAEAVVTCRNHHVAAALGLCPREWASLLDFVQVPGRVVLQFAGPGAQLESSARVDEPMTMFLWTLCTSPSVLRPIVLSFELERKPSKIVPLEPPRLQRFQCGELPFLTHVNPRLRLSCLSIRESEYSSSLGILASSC
CTC1;STN1 S96D;TEN1, sequence (Q9H668 whole entry S96D, chain 2 of 3): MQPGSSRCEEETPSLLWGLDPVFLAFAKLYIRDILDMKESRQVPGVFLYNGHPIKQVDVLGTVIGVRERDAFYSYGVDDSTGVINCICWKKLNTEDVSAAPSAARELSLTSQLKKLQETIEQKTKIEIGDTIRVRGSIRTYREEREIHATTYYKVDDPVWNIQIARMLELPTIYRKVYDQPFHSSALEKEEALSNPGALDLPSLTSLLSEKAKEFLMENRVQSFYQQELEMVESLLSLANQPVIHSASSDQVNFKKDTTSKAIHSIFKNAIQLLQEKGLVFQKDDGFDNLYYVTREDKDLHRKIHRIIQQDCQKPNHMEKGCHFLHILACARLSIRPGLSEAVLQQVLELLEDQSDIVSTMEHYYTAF
CTC1;STN1 S96D;TEN1, sequence (Q86WV5 whole entry, chain 3 of 3): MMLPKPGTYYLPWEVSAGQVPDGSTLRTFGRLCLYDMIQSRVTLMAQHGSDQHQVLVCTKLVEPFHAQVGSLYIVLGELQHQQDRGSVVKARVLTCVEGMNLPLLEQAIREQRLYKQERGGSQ

[2] = molecular target: CTC1;STN1 S96A;TEN1 (human;human;human, UniProt Q2NKJ3;Q9H668;Q86WV5 1-1217;1-368;1-123, |S96A|); experiment: as above
CTC1;STN1 S96A;TEN1, sequence (Q2NKJ3 whole entry, chain 1 of 3): as the sequence (Q2NKJ3 whole entry, chain 1 of 3) above
CTC1;STN1 S96A;TEN1, sequence (Q9H668 whole entry S96A, chain 2 of 3): as the sequence (Q9H668 whole entry S96D, chain 2 of 3) above, with D96A counted along it
CTC1;STN1 S96A;TEN1, sequence (Q86WV5 whole entry, chain 3 of 3): as the sequence (Q86WV5 whole entry, chain 3 of 3) above

[3] = molecular target: CTC1;STN1 WT;TEN1 (human;human;human, UniProt Q2NKJ3;Q9H668;Q86WV5 1-1217;1-368;1-123, ||); experiment: EMSA; EMSA: 60 nM DNA, 35 mM Tris-HCl pH 7.5, 1 mM DTT, 100 ng/uL BSA, 50 mM KCl, 37 C, 5 min; 0.8% agarose, 1x TBE, 4 C
CTC1;STN1 WT;TEN1, sequence (Q2NKJ3 whole entry, chain 1 of 3): as the sequence (Q2NKJ3 whole entry, chain 1 of 3) above
CTC1;STN1 WT;TEN1, sequence (Q9H668 whole entry, chain 2 of 3): as the sequence (Q9H668 whole entry S96D, chain 2 of 3) above, with D96S counted along it
CTC1;STN1 WT;TEN1, sequence (Q86WV5 whole entry, chain 3 of 3): as the sequence (Q86WV5 whole entry, chain 3 of 3) above

Measured: binding result

B1: Cy3-labeled 5' overhang DNA (Oligo 1 + Oligo 2) (mixed)
DNA 1: ACGCTGCCGAATTCTACCAGTGCCTTGCTAGGACATCTTTGCCCACCTGCAGGTTCACCC
DNA 2: GGGTGAACCTGCAGGTGGGCAAAGA
modifications: Oligo 1: phosphorothioate bonds at both ends (after nt 1-5 and as printed around the last 4 nt)
binds: all assays above
